Results reported in patent US20160046725A1.

What was measured:
[1] = target: human Axl receptor on human tumor cells (UniProt P30530); assay: flow cytometry on SN12C cells treated 24 h with 9G4, labelled with 9G4 isotype control
[2] = target: human Axl receptor on human tumor cells (UniProt P30530); assay: flow cytometry on SN12C cells, untreated (No Ab), labelled with 9G4 isotype control
[3] = target: human Axl receptor on human tumor cells (UniProt P30530); assay: cell-based or functional assay
[4] = target: human Axl receptor on human tumor cells (UniProt P30530); assay: quantitative flow cytometry (Qifikit) on A431 cells
[5] = target: human Axl receptor on human tumor cells (UniProt P30530); assay: quantitative flow cytometry (Qifikit) on Panc1 cells
[6] = target: human Axl receptor on human tumor cells (UniProt P30530); assay: quantitative flow cytometry (Qifikit) on Calu-1 cells
[7] = target: human Axl receptor on human tumor cells (UniProt P30530); assay: quantitative flow cytometry (Qifikit) on MCF7 cells
[8] = target: human Axl receptor on human tumor cells (UniProt P30530); assay: quantitative flow cytometry (Qifikit) on NCI-H125 cells
[9] = target: human Axl receptor on human tumor cells (UniProt P30530); assay: quantitative flow cytometry (Qifikit) on MDA-MB-435S cells
[10] = target: human Axl receptor on human tumor cells (UniProt P30530); assay: quantitative flow cytometry (Qifikit) on A172 cells
[11] = target: human Axl receptor on human tumor cells (UniProt P30530); assay: quantitative flow cytometry (Qifikit) on SN12C cells
[12] = target: human Axl receptor on human tumor cells (UniProt P30530); assay: quantitative flow cytometry (Qifikit) on MDA-MB-231 cells
[13] = target: human Axl receptor on human tumor cells (UniProt P30530); assay: quantitative flow cytometry (Qifikit) on NCI-H226 cells
[14] = target: human Axl receptor on human tumor cells (UniProt P30530); assay: quantitative flow cytometry (Qifikit) on PC3 cells
[15] = target: human Axl receptor on human tumor cells (UniProt P30530); assay: flow cytometry on SN12C cells, untreated (No Ab), labelled with MAB154
[16] = target: human Axl receptor on human tumor cells (UniProt P30530); assay: quantitative flow cytometry (Qifikit) on DU-145 cells

Chain of human Axl receptor on human tumor cells (P30530 26-894 D266N): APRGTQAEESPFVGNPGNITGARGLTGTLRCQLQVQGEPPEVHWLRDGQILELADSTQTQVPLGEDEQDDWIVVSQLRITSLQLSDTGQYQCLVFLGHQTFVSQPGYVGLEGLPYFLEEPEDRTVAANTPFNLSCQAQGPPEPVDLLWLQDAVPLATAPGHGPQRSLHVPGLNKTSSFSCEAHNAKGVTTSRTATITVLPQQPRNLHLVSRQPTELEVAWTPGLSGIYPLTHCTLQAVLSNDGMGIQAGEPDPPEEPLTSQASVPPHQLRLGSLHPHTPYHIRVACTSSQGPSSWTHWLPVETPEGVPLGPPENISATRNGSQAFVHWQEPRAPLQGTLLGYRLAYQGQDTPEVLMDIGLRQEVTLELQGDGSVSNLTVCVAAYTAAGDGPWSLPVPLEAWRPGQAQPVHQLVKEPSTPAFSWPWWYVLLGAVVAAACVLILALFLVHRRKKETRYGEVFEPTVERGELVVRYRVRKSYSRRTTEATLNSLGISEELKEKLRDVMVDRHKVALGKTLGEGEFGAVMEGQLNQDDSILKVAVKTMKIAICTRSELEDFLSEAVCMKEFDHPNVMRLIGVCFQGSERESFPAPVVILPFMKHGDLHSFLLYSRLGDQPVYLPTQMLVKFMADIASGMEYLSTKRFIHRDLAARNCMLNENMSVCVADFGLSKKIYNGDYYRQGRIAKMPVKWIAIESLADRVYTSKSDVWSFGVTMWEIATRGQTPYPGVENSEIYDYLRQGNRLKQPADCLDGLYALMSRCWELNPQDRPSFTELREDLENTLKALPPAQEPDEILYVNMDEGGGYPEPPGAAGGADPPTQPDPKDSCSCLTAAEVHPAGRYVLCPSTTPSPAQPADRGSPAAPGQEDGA

| MFI at T24 h [1] [MFI] | MFI at T24 h [2] [MFI] | % remaining Axl [3] [%] | Δ (MFI No Ab 24 h - MFI Ab 24 h) [3] [MFI] | ABC (Qifikit) [4] [ABC] | ABC (Qifikit) [5] [ABC] | ABC (Qifikit) [6] [ABC] | ABC (Qifikit) [7] [ABC] | ABC (Qifikit) [8] [ABC] | ABC (Qifikit) [9] [ABC] | ABC (Qifikit) [10] [ABC] | ABC (Qifikit) [11] [ABC] | Antigen binding capacity (Qifikit) [11] [ABC] | ABC (Qifikit) [12] [ABC] | ABC (Qifikit) [13] [ABC] | ABC (Qifikit) [14] [ABC] | MFI at T24 h [15] [MFI] | ABC (Qifikit) [16] [ABC] | Substance |
| --- | --- | --- | --- | --- | --- | --- | --- | --- | --- | --- | --- | --- | --- | --- | --- | --- | --- | --- |
| 13 | 11 | 117 | -2 | – | – | – | – | – | – | – | – | – | – | – | – | – | – | 9G4 murine IgG1 isotype control antibody |
| – | – | – | – | 3950 | 36800 | > 100000 | 71 | 5540 | 17800 | 52400 | > 100000 | > 100000 | 61200 | 32100 | 8420 | 950 | 55300 | MAB154 anti-Axl commercial antibody (R and D Systems) |
